Laboratory results: patent US20220403023A1

Legend:
[1] = biological target: CD47 on human red blood cells (human) (UniProt Q08722); test: FACS on human red blood cells, goat anti-human IgG-Fc PE; blank (Neg) 232
[2] = biological target: human CD47 ECD protein (human) (UniProt Q08722); test: competition ELISA against human SIRPα-His (1 µg/mL) on plate-coated human CD47 ECD; ligand only 1.438
[3] = biological target: human CD47 on engineered CHO-K1 cells (human) (UniProt Q08722); test: FACS on CHO-K1 cells expressing human CD47 (CHOK1-huCD47), goat anti-human IgG-Fc PE; blank (Neg) 34.8
[4] = biological target: human CD47 ECD protein (human) (UniProt Q08722); test: ELISA on plate-coated human CD47 ECD (1 µg/mL), goat anti-human IgG-Fc-HRP, OD450; blank (Neg) 0.102
[5] = biological target: cynomolgus monkey CD47 on engineered CHO-K1 cells (cynomolgus monkey); test: FACS on CHO-K1 cells expressing cynomolgus CD47 (CHOK1-cynoCD47), goat anti-human IgG-Fc PE; blank (Neg) 47.6
[6] = biological target: human CD47 on engineered CHO-K1 cells (human) (UniProt Q08722); test: competition FACS against human SIRPα-His (1 µg/mL) on CHOK1-huCD47 cells; ligand only 1086
[7] = biological target: CD47 on human origin tumor cells (human) (UniProt Q08722); test: FACS on BxPC-3 cells
[8] = biological target: CD47 on human origin tumor cells (human) (UniProt Q08722); test: FACS on BT474 cells
[9] = biological target: CD47 on human origin tumor cells (human) (UniProt Q08722); test: FACS on CaLu-6 cells
[10] = biological target: CD47 on human origin tumor cells (human) (UniProt Q08722); test: FACS on Hut78 cells
[11] = biological target: CD47 on human origin tumor cells (human) (UniProt Q08722); test: FACS on Ramos cells
[12] = biological target: CD47 on human origin tumor cells (human) (UniProt Q08722); test: FACS on 293F cells
[13] = biological target: CD47 on human origin tumor cells (human) (UniProt Q08722); test: FACS on HT29 cells
[14] = biological target: CD47 on human origin tumor cells (human) (UniProt Q08722); test: FACS on Jurkat.268 cells
[15] = biological target: CD47 on human origin tumor cells (human) (UniProt Q08722); test: FACS on MDA-MB-453 cells
[16] = biological target: CD47 on human origin tumor cells (human) (UniProt Q08722); test: FACS on FaOb cells
[17] = biological target: CD47 on human origin tumor cells (human) (UniProt Q08722); test: FACS on A204 cells
[18] = biological target: CD47 on human origin tumor cells (human) (UniProt Q08722); test: FACS on HepG2 cells
[19] = biological target: CD47 on human origin tumor cells (human) (UniProt Q08722); test: FACS on A431 cells
[20] = biological target: CD47 on human origin tumor cells (human) (UniProt Q08722); test: FACS on A375 cells
[21] = biological target: CD3.his; test: non-specific binding ELISA, protein coated 1 µg/mL
[22] = biological target: VEGFR2.his; test: non-specific binding ELISA, protein coated 1 µg/mL
[23] = biological target: 4-1B8.his; test: non-specific binding ELISA, protein coated 1 µg/mL
[24] = biological target: FGFR.his; test: non-specific binding ELISA, protein coated 1 µg/mL
[25] = biological target: CD22.his; test: non-specific binding ELISA, protein coated 1 µg/mL
[26] = biological target: Factor Eight; test: non-specific binding ELISA, protein coated 1 µg/mL
[27] = biological target: HER3.his (Homo sapiens (Human)) (UniProt P21860); test: non-specific binding ELISA, protein coated 1 µg/mL
[28] = biological target: CTLA4.his; test: non-specific binding ELISA, protein coated 1 µg/mL
[29] = biological target: PD-1.his (Homo sapiens (Human)) (UniProt Q15116); test: non-specific binding ELISA, protein coated 1 µg/mL
[30] = biological target: VEGF.his; test: non-specific binding ELISA, protein coated 1 µg/mL
[31] = biological target: HSA. (UniProt P02768); test: non-specific binding ELISA, protein coated 1 µg/mL
[32] = biological target: CD147.his; test: non-specific binding ELISA, protein coated 1 µg/mL
[33] = biological target: OX40.his; test: non-specific binding ELISA, protein coated 1 µg/mL
[34] = biological target: CD40.his; test: non-specific binding ELISA, protein coated 1 µg/mL
Chain of CD40.his (P25942 21-193): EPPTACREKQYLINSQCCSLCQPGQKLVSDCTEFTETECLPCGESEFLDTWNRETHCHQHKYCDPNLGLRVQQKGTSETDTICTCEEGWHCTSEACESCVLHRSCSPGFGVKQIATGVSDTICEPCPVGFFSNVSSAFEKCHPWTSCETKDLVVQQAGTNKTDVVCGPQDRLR

Chain of OX40.his (P43489 29-214): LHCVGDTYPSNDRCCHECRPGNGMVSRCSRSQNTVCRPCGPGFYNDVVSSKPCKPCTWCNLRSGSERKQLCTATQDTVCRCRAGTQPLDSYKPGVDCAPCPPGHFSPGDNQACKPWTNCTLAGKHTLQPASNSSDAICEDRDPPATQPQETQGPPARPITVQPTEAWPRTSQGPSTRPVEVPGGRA
Chain of VEGFR2.his (P35968 20-764): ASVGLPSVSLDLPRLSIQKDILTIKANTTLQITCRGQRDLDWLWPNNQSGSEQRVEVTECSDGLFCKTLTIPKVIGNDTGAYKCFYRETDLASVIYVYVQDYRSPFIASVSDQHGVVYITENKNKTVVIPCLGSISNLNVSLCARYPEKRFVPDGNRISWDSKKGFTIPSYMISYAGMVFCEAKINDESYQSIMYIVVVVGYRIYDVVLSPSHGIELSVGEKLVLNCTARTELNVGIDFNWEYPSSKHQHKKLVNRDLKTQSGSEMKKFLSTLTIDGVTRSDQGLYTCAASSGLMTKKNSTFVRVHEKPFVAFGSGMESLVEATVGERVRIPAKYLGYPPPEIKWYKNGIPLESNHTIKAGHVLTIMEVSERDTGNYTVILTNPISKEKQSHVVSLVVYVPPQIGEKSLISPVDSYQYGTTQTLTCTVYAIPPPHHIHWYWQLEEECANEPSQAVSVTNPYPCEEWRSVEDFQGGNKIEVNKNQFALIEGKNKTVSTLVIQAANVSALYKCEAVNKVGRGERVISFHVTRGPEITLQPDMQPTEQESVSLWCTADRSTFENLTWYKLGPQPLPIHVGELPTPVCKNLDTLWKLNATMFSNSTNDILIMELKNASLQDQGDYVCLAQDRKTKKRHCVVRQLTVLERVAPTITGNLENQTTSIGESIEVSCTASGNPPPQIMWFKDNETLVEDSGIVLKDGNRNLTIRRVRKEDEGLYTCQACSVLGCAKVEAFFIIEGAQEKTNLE
Chain of 4-1B8.his (Q07011 24-186): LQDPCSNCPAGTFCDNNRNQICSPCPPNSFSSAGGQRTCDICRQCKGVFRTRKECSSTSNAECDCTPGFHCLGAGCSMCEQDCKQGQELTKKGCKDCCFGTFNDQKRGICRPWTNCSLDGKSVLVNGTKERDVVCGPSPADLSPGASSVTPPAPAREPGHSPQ
Chain of CTLA4.his (P16410 36-161): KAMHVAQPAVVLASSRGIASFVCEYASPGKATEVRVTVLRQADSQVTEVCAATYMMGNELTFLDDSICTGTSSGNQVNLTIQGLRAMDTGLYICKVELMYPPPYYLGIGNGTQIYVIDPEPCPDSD
Chain of PD-1.his (Homo sapiens (Human)) (Q15116 25-170 limits assumed): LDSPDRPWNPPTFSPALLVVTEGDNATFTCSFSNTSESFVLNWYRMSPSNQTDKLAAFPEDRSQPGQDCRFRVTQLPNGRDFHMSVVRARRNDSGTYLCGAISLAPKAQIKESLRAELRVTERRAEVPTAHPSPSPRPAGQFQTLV

MFI [7]	MFI [8]	MFI [9]	MFI [10]	MFI [11]	MFI [12]	MFI [13]	MFI [14]	MFI [15]	MFI [16]	MFI [17]	MFI [18]	MFI [19]	MFI [20]	ELISA-OD450 [21]	ELISA-OD450 [22]	ELISA-OD450 [23]	ELISA-OD450 [24]	ELISA-OD450 [25]	ELISA-OD450 [26]	Substance	also measured
–	–	–	–	–	–	–	–	–	–	–	–	–	–	–	–	–	–	–	–	IgG4 isotype control (antibody)	Max MFI [1]: 238 MFI; Max Inhibit% [2]: 21.2%; Min OD [2]: 1.13 OD450; Max MFI [3]: 66 MFI; Max OD [4]: 0.123 OD450; Max MFI [5]: 97.9 MFI; Max Inhibit% [6]: 12.2%; Min MFI [6]: 953 MFI
42.9	20.8	23.3	49.7	74.4	56.4	44.3	36.9	32.2	36.2	34.7	32.2	39.5	22.8	0.0479	0.0432	0.0463	0.133	0.0451	0.181	hIgG4K Isotype control (antibody)	ELISA-OD450 [27]: 0.044; ELISA-OD450 [28]: 0.0562; ELISA-OD450 [29]: 3.71; ELISA-OD450 [30]: 0.0452; ELISA-OD450 [31]: 0.322; ELISA-OD450 [32]: 0.0424; ELISA-OD450 [33]: 0.0508; ELISA-OD450 [34]: 0.213
110	19.1	88.4	50.2	68.4	28.7	45.7	64.3	28.3	429	42.4	27.3	251	49.5	0.0518	0.0441	0.0463	0.137	0.0467	0.0481	hIgG4L Isotype control (antibody)	ELISA-OD450 [27]: 0.0445; ELISA-OD450 [28]: 0.0571; ELISA-OD450 [29]: 0.227; ELISA-OD450 [30]: 0.0463; ELISA-OD450 [31]: 0.335; ELISA-OD450 [32]: 0.0443; ELISA-OD450 [33]: 0.051; ELISA-OD450 [34]: 0.205
